Data on three molecules can be found in US20230374088A1 (GENERAL HOSPITAL, published 2023).

The target of one assay is T1, c-Myc-Gli2 (595-1568aa) (human, UniProt P10070 595-1568).
T1 construct: the end of the construct is meant as the C-terminus of the protein; also called C-terminal half of Gli2; not shown: c-myc tag from pCMV-BICEP-4 (MCS2), N-terminal by the name
T1 sequence (looked up): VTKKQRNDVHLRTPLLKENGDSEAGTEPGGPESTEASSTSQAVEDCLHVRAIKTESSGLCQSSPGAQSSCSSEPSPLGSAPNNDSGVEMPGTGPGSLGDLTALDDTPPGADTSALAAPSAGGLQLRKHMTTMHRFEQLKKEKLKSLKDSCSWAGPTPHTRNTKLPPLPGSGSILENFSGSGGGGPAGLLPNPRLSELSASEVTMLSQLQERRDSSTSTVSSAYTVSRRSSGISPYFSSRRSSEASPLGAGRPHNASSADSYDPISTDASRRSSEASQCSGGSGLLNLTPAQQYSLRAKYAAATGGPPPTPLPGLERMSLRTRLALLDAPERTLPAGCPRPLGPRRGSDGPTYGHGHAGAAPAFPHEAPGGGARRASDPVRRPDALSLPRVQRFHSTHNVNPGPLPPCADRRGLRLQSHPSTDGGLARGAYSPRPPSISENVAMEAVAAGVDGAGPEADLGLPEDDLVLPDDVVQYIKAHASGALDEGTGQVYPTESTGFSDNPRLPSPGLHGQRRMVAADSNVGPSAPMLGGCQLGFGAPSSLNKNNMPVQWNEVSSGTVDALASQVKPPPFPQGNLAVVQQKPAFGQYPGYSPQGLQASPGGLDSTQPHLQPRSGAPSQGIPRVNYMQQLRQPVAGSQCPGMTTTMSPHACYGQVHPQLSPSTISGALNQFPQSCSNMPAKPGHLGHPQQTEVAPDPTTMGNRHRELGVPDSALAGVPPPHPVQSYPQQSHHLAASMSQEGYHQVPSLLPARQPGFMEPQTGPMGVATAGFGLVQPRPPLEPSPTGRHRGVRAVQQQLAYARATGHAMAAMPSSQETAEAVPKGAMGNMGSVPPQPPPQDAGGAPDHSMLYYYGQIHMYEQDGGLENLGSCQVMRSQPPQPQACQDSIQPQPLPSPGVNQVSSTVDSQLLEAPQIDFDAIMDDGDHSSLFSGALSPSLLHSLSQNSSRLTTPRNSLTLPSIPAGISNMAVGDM
The assay can be described thus: pull-down on anti-FLAG beads, anti-c-myc blot, Expi293F cells. From the text: (§1) Immunoprecipitation (IP) using anti-FLAG magnetic beads. Input (cell lysate), FT (flow through), wash and beads samples were immunoblotted (IB) with anti c-Myc antibody to detect Gli2. […] The blots are representative images of a minimum of three repeats. Gli2-ZF mutants are as follows: ZF2-mut (H493A, R496A), ZF3-mut (H503A, R516A, K521A), ZF4-mut (R550A, K552A, R556A). Kif7-CC mutants are as follows: S1-mut (E500A, E501A, E502A, D505A), S2-mut (E511A, E515A), S3-mut1 (E526A, E529A) and S3-mut2 (E530A, R535A).
(§2) To narrow down the residues that participate in binding, we analyzed the model of the Kif7-SCC:Gli2-ZF complex using PDBsum server (De Beer et al., Nucleic acids research, 42, D292-D296, 2014). We performed alanine scanning mutagenesis of the charged residues on Gli2-ZF that came up as part of the binding interface in the PDBsum analysis and analyzed their binding with pull-down assay (FIG. 3D). […] We systematically mutated the residues to alanine and performed the pull-down assay with Gli2-ZF.

For the next assay, the target named is T2, FLAG-Kif7 (544-1343aa) (human, UniProt Q2M1P5 544-1343).
T2 construct: Expressed in Expi293F cells for the pull-down; also called C-terminal half of Kif7; not shown: FLAG tag from pCMV-BICEP-4 (MCS1), N-terminal by the name
T2 sequence: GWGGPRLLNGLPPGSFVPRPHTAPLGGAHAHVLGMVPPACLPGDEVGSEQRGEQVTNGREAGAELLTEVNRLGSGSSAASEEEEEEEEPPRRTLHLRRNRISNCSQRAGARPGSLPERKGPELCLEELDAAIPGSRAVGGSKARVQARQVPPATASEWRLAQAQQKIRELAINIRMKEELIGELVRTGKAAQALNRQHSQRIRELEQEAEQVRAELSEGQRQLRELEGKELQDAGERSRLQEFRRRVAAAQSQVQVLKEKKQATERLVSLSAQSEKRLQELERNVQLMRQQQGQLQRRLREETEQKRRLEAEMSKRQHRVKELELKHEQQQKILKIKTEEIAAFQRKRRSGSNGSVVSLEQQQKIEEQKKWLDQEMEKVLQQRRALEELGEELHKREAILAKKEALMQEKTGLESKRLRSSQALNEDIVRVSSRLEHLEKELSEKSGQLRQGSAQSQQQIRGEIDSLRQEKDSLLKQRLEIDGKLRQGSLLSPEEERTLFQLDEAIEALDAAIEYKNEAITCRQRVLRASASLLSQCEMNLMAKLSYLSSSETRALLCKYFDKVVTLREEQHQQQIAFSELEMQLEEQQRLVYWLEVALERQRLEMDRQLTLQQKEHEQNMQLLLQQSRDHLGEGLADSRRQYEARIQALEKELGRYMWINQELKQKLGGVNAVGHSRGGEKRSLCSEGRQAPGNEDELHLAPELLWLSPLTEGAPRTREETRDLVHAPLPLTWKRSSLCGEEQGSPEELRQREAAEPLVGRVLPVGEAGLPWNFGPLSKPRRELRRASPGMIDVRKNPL
The description is as above.
Source text: as §1, §2

The next assay addresses T3, Kif7-DM (1-543aa) (human, UniProt Q2M1P5 1-543).
T3 construct: As used for cryo-EM, without GFP; Expressed with a TEV-cleavable N-terminal 6xHis-SUMOstar tag; also called Kif7 dimer; dimeric Kif7
T3 sequence: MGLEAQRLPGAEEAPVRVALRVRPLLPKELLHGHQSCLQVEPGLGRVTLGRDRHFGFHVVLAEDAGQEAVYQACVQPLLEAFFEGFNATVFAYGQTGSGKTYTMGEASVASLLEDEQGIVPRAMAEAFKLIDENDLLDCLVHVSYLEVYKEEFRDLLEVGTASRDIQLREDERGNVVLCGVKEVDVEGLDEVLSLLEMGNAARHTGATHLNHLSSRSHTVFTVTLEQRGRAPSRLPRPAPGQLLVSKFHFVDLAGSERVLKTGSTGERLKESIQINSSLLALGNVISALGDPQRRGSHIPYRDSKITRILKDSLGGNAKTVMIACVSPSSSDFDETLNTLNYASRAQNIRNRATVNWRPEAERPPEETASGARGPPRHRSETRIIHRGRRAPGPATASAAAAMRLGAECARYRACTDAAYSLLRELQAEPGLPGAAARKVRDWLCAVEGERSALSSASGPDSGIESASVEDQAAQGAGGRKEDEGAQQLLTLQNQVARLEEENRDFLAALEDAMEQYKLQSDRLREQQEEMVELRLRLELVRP
The assay can be described thus: cryo-EM of microtubule-bound Kif7-DM with AMP-PNP, 3.9 Å. How it is done: For grid preparation, all Kif7-GIi2 preparations were diluted using BRB80 (80 mM 1,4-piperazinediethanesulfonic acid [PIPES], pH 6.8, 1 mM MgCl₂, 1 mM ethylene glycol tetraacetic acid [EGTA]). Porcine brain microtubules were prepared from frozen aliquots of 5 mg/ml tubulin (Cytoskeleton, Denver, CO) in polymerization buffer (BRB80; 80 mM PIPES, pH 6.8, 1 mM EGTA, 2 mM MgCl₂, 3 mM GMP-CPP, 10% dimethyl sulfoxide (DMSO)) at 37° C. for 2-3 hours. The polymerized microtubules were then incubated at room temperature for several hours or overnight before use. The following day or several hours later the microtubules were spun down on a bench top centrifuge 14.00 RPM 10 min to pellet. The pellet was resuspended in polymerization buffer without DMSO. The Kif7 dimer and monomer preparations were made by mixing the Kif7 with the GIi2 or GIi2-SNAP for 1 hour prior to incubation with the microtubules. Kif7-dimer (0.36 mg/ml) plus GIi2 (0.2 mg/ml) in BRB plus 2 mM ADP, 2 mM MgcI2, Kif7-monomer (0.45 mg/mL) or Kif7 dimer plus GIi2_SNAP (0.30 mg/mL) plus BRB80 with 1 mM AMPPNP and 1 mM MgCl₂. All microtubule samples were prepared on 1.2/1.3 400-mesh grids (Electron Microscopy Services) Grids were glow-discharged before sample application. The cryo-samples were prepared using a manual plunger, which was placed in a homemade humidity chamber that varied between 80 and 90% relative humidity. […]

A further assay deals with T4, Kif27-DM-GFP (1-580aa) (human, UniProt Q86VH2 1-580).
T4 construct: range 1-580; Called dimeric; not shown: GFP tag, C-terminal by the name
T4 sequence (looked up): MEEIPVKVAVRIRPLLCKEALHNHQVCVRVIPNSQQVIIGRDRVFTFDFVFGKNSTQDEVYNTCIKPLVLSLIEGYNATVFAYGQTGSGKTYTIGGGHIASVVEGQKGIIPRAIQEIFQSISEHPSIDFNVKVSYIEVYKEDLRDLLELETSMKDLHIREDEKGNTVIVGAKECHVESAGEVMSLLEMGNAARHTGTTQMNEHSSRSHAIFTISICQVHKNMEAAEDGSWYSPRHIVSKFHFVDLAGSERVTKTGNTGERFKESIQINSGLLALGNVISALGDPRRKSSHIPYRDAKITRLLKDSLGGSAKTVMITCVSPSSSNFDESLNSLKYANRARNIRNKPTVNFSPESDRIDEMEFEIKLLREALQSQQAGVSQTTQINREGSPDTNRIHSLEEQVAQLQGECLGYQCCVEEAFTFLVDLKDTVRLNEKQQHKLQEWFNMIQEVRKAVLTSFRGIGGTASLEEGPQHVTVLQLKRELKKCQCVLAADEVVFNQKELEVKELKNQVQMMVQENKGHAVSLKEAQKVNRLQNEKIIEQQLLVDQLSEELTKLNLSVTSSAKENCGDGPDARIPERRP
Nature of the assay: TIRF microscopy on microtubules; 100 nM Gli2-ZF-SNAP-Alexa647 with 100 nM kinesin.

B1: FLAG-Kif7 (1-543aa) (other)
chain: MGLEAQRLPGAEEAPVRVALRVRPLLPKELLHGHQSCLQVEPGLGRVTLGRDRHFGFHVVLAEDAGQEAVYQACVQPLLEAFFEGFNATVFAYGQTGSGKTYTMGEASVASLLEDEQGIVPRAMAEAFKLIDENDLLDCLVHVSYLEVYKEEFRDLLEVGTASRDIQLREDERGNVVLCGVKEVDVEGLDEVLSLLEMGNAARHTGATHLNHLSSRSHTVFTVTLEQRGRAPSRLPRPAPGQLLVSKFHFVDLAGSERVLKTGSTGERLKESIQINSSLLALGNVISALGDPQRRGSHIPYRDSKITRILKDSLGGNAKTVMIACVSPSSSDFDETLNTLNYASRAQNIRNRATVNWRPEAERPPEETASGARGPPRHRSETRIIHRGRRAPGPATASAAAAMRLGAECARYRACTDAAYSLLRELQAEPGLPGAAARKVRDWLCAVEGERSALSSASGPDSGIESASVEDQAAQGAGGRKEDEGAQQLLTLQNQVARLEEENRDFLAALEDAMEQYKLQSDRLREQQEEMVELRLRLELVRP
notes: Expressed in Expi293F cells for the pull-down; also called N-terminal half of Kif7; Kif7-DM; not shown: FLAG tag from pCMV-BICEP-4 (MCS1), N-terminal by the name
Turning to B1, in the assay with c-Myc-Gli2 (595-1568aa), the binding result was “no binding”.

B2: c-Myc-Gli2 (1-594aa) (other, human, UniProt P10070 1-594, looked up)
chain: METSASATASEKQEAKSGILEAAGFPDPGKKASPLVVAAAAAAAVAAQGVPQHLLPPFHAPLPIDMRHQEGRYHYEPHSVHGVHGPPALSGSPVISDISLIRLSPHPAGPGESPFNAPHPYVNPHMEHYLRSVHSSPTLSMISAARGLSPADVAQEHLKERGLFGLPAPGTTPSDYYHQMTLVAGHPAPYGDLLMQSGGAASAPHLHDYLNPVDVSRFSSPRVTPRLSRKRALSISPLSDASLDLQRMIRTSPNSLVAYINNSRSSSAASGSYGHLSAGALSPAFTFPHPINPVAYQQILSQQRGLGSAFGHTPPLIQPSPTFLAQQPMALTSINATPTQLSSSSNCLSDTNQNKQSSESAVSSTVNPVAIHKRSKVKTEPEGLRPASPLALTQGQVSGHGSCGCALPLSQEQLADLKEDLDRDDCKQEAEVVIYETNCHWEDCTKEYDTQEQLVHHINNEHIHGEKKEFVCRWQACTREQKPFKAQYMLVVHMRRHTGEKPHKCTFEGCSKAYSRLENLKTHLRSHTGEKPYVCEHEGCNKAFSNASDRAKHQNRTHSNEKPYICKIPGCTKRYTDPSSLRKHVKTVHGPDAH
notes: Expressed in Expi293F cells for the pull-down; also called N-terminal half of Gli2; not shown: c-myc tag from pCMV-BICEP-4 (MCS2), N-terminal by the name
Turning to B2, the binding result with FLAG-Kif7 (544-1343aa) is recorded as “no binding”.

B3: Gli2-ZF-SNAP (other, human, UniProt P10070 418-604, looked up)
chain: KEDLDRDDCKQEAEVVIYETNCHWEDCTKEYDTQEQLVHHINNEHIHGEKKEFVCRWQACTREQKPFKAQYMLVVHMRRHTGEKPHKCTFEGCSKAYSRLENLKTHLRSHTGEKPYVCEHEGCNKAFSNASDRAKHQNRTHSNEKPYICKIPGCTKRYTDPSSLRKHVKTVHGPDAHVTKKQRNDVH
modifications: Alexa 647 dye on the SNAP tag in the TIRF assays
notes: Labeled with Alexa 647 for TIRF microscopy; used unlabeled (as far as told) for cryo-EM; also called Gli2-ZF-SNAP-Alexa 647; Gli2-ZF-Alexa 647; not shown: C-terminal SNAP tag
Regarding B3, the binding result in the assay with Kif7-DM (1-543aa) is “binds”; in the assay with Kif27-DM-GFP (1-580aa), “no binding”.
